{"source": "patent US20100105876A1", "about": "“Method for the oligomerisation of peptides” (priority 1996, published 2010)", "key": {"BCL1 IgM idiotype": {"target": "BCL1 IgM idiotype", "test": "RIA competition on plastic: inhibition of 125I labeled B1 IgG binding to coated BCL1 IgM", "parameters": "species or system mouse", "experimental": "RIA competition on plastic. Polyvinil 96-well plates are coated with BCL1 IgM at 3 μg/ml in PBS for 16 h at 4° C. and blocked with 2% MPBS for 1 h at 37° C. Different amounts of peptides are incubated with 10 nCi of ^125I labeled B1 IgG for 1 h at 37° C. The wells are washed with PBS containing 0.1% of Tween-20 and the amounts of radioactivity retained is measured with an automated multichannel Cobra II γ-counter.\nSynthetic peptides corresponding to the selected sequences are prepared as outlined in Table 1. Cysteins containing peptide S is completely oxidized on air loosing two hydrogen atoms, as shown by Mass Spectroscopy, which is consistent with the cyclization of the peptide. All synthetic peptides are tested for binding inhibition of ^125I labeled B1 IgG to BCL1 IgM coated on plastic. The D and the S peptides inhibit binding with an IC50 of about 60 μM and 200 μM, respectively. No inhibition is seen with peptide F up to 2 mM, which is used, thereafter, as a negative control.\nHowever, since spatial arrangement of target molecule on the surface may influence multivalent binding, the equilibrium binding parameters of Pab-S are determined directly on live BCL1 cells, which represent a more relevant biological surface. Purified Pab-S is labeled with ^125I and is shown to bind to BCL1 idiotype on the cell surface. […]"}, "[1]": {"target": "Pentabody Pab-S (peptide S - camel Ig hinge - modified COMP pentamerization domain - 6xHis, homopentamer) (UniProt P35444)", "sequence (P35444 other isoform, or with tags, fused parts or gaps)": "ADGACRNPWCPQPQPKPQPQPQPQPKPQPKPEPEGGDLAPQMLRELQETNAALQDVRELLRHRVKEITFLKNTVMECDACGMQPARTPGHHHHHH", "test": "soluble BCL1 IgM competing the binding of Pab-S to BCL1 cells"}, "[2]": {"target": "BCL1 soluble IgM (idiotype-bearing IgM purified from the serum of a mouse carrying the BCL1 B-cell lymphoma) (mouse)", "test": "RIA competition: peptide against 125I B1 IgG on BCL1 IgM coated on plastic"}}, "note": "Bridge positions count the residues as written; N and C are the ends. Ends that are not written are not given here."}
{"molecule": "SVWRWLPYDKYE", "values": [{"measurement": "IC50", "setting": "BCL1 IgM idiotype; synthetic peptides, BCL1 IgM coated on plastic", "result": "~60", "unit": "µM"}]}
{"molecule": "peptide F: Synthetic peptide, first ten amino acids of the sequence selected from the Fisch library (SEQ ID 3); negative control (TAAGLCEFDQ; Synthetic peptide ligand specific for mouse BCL1 idiotype selected from peptide libraries dispalyed on filamentous bacteriophage displaying random hexapeptides or decapeptides)", "values": [{"measurement": "inhibition of 125I labeled B1 IgG binding to BCL1 IgM coated on plastic", "setting": "BCL1 IgM idiotype; up to 2 mM peptide", "result": "No inhibition"}]}
{"molecule": "BCL1 soluble IgM (idiotype-bearing IgM purified from the serum of a mouse carrying the BCL1 B-cell lymphoma) (antibody)", "values": [{"measurement": "concentration for 80% displacement", "setting": "[1]", "result": 100, "unit": "nM"}]}
{"molecule": "SVWRWLPYDKYE", "note": "[synthetic peptide D (selected from the Doorbar library)]", "values": [{"measurement": "IC50", "setting": "[2]", "result": 60, "unit": "µM"}]}
{"molecule": "ADGACRNPWC (disulfide 5-10 (inferred))", "note": "[synthetic peptide S (selected from the Smith library, oxidized/cyclized)]", "values": [{"measurement": "IC50", "setting": "[2]", "result": 200, "unit": "µM"}]}
